First the molecules themselves.
B1: WT His6-MutL, full length [E. coli] / WT MutS, full length [E. coli] (parent)
chain 1: MPIQVLPPQLANQIAAGEVVERPASVVKELVENSLDAGATRIDIDIERGGAKLIRIRDNGCGIKKDELALALARHATSKIASLDDLEAIISLGFRGEALASISSVSRLTLTSRTAEQQEAWQAYAEGRDMNVTVKPAAHPVGTTLEVLDLFYNTPARRKFLRTEKTEFNHIDEIIRRIALARFDVTINLSHNGKIVRQYRAVPEGGQKERRLGAICGTAFLEQALAIEWQHGDLTLRGWVADPNHTTPALAEIQYCYVNGRMMRDRLINHAIRQACEDKLGADQQPAFVLYLEIDPHQVDVNVHPAKHEVRFHQSRLVHDFIYQGVLSVLQQQLETPLPLDDEPQPAPRSIPENRVAAGRNHFAEPAAREPVAPRYTPAPASGSRPAAPWPNAQPGYQKQQGEVYRQLLQTPAPMQKLKAPEPQEPALAANSQSFGRVLTIVHSDCALLERDGNISLLSLPVAERWLRQAQLTPGEAPVCAQPLLIPLRLKVSAEEKSALEKAQSALAELGIDFQSDAQHVTIRAVPLPLRQQNLQILIPELIGYLAKQSVFEPGNIAQWIARNLMSEHAQWSMAQAITLLADVERLCPQLVKTPPGGLLQSVDLHPAIKALKDE
chain 2: MSAIENFDAHTPMMQQYLRLKAQHPEILLFYRMGDFYELFYDDAKRASQLLDISLTKRGASAGEPIPMAGIPYHAVENYLAKLVNQGESVAICEQIGDPATSKGPVERKVVRIVTPGTISDEALLQERQDNLLAAIWQDSKGFGYATLDISSGRFRLSEPADRETMAAELQRTNPAELLYAEDFAEMSLIEGRRGLRRRPLWEFEIDTARQQLNLQFGTRDLVGFGVENAPRGLCAAGCLLQYAKDTQRTTLPHIRSITMEREQDSIIMDAATRRNLEITQNLAGGAENTLASVLDCTVTPMGSRMLKRWLHMPVRDTRVLLERQQTIGALQDFTAGLQPVLRQVGDLERILARLALRTARPRDLARMRHAFQQLPELRAQLETVDSAPVQALREKMGEFAELRDLLERAIIDTPPVLVRDGGVIASGYNEELDEWRALADGATDYLERLEVRERERTGLDTLKVGFNAVHGYYIQISRGQSHLAPINYMRRQTLKNAERYIIPELKEYEDKVLTSKGKALALEKQLYEELFDLLLPHLEALQQSASALAELDVLVNLAERAYTLNYTCPTFIDKPGIRITEGRHPVVEQVLNEPFIANPLNLSPQRRMLIITGPNMGGKSTYMRQTALIALMAYIGSYVPAQKVEIGPIDRIFTRVGAADDLASGRSTFMVEMTETANILHNATEYSLVLMDEIGRGTSTYDGLSLAWACAENLANKIKALTLFATHYFELTQLPEKMEGVANVHLDALEHGDTIAFMHSVQDGAASKSYGLAVAALAGVPKEVIKRARQKLRELESISPNAAATQVDGTQMSLLSVPEETSPAVEALENLDPDSLTPRQALEWIYRLKSLV

The variants in one experiment derive from B1. Kind of experiment: SPR. The conditions noted are these: with WT MutS, MutS sliding clamps pre-formed on 100-bp end-blocked DNA in the presence of ATP, value read at the highest MutL concentration (last point, est. about 5,000 …), read off a plot.
Regarding chain 1 R55D R57D A138E H139A, the response is -1%. On to chain 1 R55D R57D, for which the response is -7%.

Consider chain 1 K52C, for which the response turned out to be 13%.

On to chain 1 A138E, for which the response was 11%. Regarding chain 1 A138E H139A, the response stood at 3%.

Still in this experiment, the particulars now being: with WT His6-MutL, MutS sliding clamps pre-formed on 100-bp end-blocked DNA in the presence of ATP, value read at the highest MutL concentration (last point, est. about 5,000 …), read off a plot.
As to chain 2 P595A I597A M759D, the response stood at 8%.

The record behind these values is article PMC4521584.
